How the values were obtained:
Zif268 fingers 1-3 = Zif268 fingers 1-3 (Mus musculus, UniProt P08046 SEQ:1-91); experiment: SPR; zinc buffer (90 uM ZnCl2, 5 mM DTT); Kd from kon/koff
Zif268 variant C7 = Zif268 variant C7 (synthetic (Zif268 variant, mouse), UniProt P08046); experiment: SPR; 5-fold slower dissociation; Kd in FIG. 11 only
(C7 finger)x3 = (C7 finger)x3 (synthetic (Zif268 variant)); experiment: SPR; conditions: hairpin
TFIIIA zf1-3 = TFIIIA zf1-3 (UniProt P03001 P03001:33-123); experiment: EMSA; ambient temperature; complete 23 bp sequence not given; conditions: tags: first three zinc fingers of TFIIIA; label: 32P
Chain of TFIIIA zf1-3 (P03001 33-123, one chain of several): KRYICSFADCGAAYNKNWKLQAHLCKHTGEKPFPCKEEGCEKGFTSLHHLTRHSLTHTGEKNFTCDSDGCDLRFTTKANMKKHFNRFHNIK
Excerpt: An experiment was designed to determine whether the binding of this polypeptide to its recognition sequence, placed close to an active RNA polymerase promoter, would inhibit the activity of that promoter in vitro. The following experiments were done to provide such a test system. A 23 bp oligonucleotide (Liao, et al., 1992, supra) containing the 13 bp recognition sequence for zf1–3 was cloned into the polylinker region of plasmid pBluescript SK+ (Stratagene, La Jolla, Calif.), near the promoter sequence for T7 RNA polymerase. The parent plasmid was digested with the restriction enzyme EcoRV and, after dephosphorylation with calf intestinal alkaline phosphatase, the phosphorylated 23 bp oligonucleotide was inserted by ligation with T4 DNA ligase. The ligation product was used for transformation of DH5α *E. coli* cells. Clones harboring 23 bp inserts were identified by restriction digestion of miniprep DNA. The success of cloning was also verified by DNA sequence analysis. The DNA binding activity of the preparation of recombinant zf1–3 was also determined by gel mobility shift analysis with a 56 bp radiolabeled EcoRI/XhoI restriction fragment derived from the cone containing the binding site for zf1–3 and with the radiolabeled 23 bp oligonucleotide. Gel shift assays were done as described (Liao, et al., supra; Fried, et al., *Nucl. Acids., Res.,* 9:6505, 1981). […]

MBP-C7 = MBP-C7 (synthetic (Zif268 variant, mouse), UniProt P08046); experiment: EMSA; 0.1 mM ZnCl2, RT

Chain of (C7 finger)x3 (synthetic (Zif268 variant)) (chain, as listed by the source): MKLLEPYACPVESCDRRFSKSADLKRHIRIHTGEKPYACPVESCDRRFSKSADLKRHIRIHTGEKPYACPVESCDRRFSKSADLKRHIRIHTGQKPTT

B1: Z268N consensus hairpin (structured_DNA)
DNA: CCTGCGTGGGCGCCCTTTTGGGCGCCCACGCAGG
Kd (Zif268 fingers 1-3): 6.5 nM
binding signal (Zif268 variant C7): 13 fold tighter than Zif268

B2: GCG-GCG-GCG hairpin (structured_DNA)
DNA: CCTCGCCGCCGCGGGTTTTCCCGCGCCCCCGAGG
Kd ((C7 finger)x3): 9 nM

B3: zf1-3 binding site oligo (23 bp containing 13 bp site) (dsDNA)
DNA 1: TGGATGGGAGACC
DNA 2: GGTCTCCCATCCA
binding result (TFIIIA zf1-3): binds

B4: C7 site probe (dsDNA)
DNA 1: GATGTATGTAGCGTGGGCGTAAGTAATGC
DNA 2: GCATTACTTACGCCCACGCTACATACATC
Kd (MBP-C7): 31.8 nM

Source: patent publication US6140466, “Zinc finger protein derivatives and methods therefor” (The Scripps Research Institute)
